The values below come from PMC12658005 (Communications Biology, 2025).

The data set concerns the molecule itself. Put plainly: cryo-EM structure.

B1: F plasmid TraT protein complex (TraT-TS) (natural protein)
chain: CGAMSTAIKKRNLEVKTQMSETIWLEPASERTVFLQIKNTSDKDMSGLQGKIADAVKAKGYQVVTSPDKAYYWIQANVLKADKMDLRESQGWLNRGYEGAAVGAALGAGITGYNSNSAGATLGVGLAAGLVGMAADAMVEDVNYTMITDVQIAERTKATVTTDNVAALRQGTSGAKIQTSTETGNQHKYQTRVVSNANKVNLKFEEAKPVLEDQLAKSIANIL
modifications: lipid anchor on the N-terminal cysteine (density not resolved)
notes: also called TraTF; TraT exclusion protein complex; copies: 10
As for B1, the stoichiometry N (in general, a count of units in the complex or per binding partner) stood at 10.
